Reference: a protein production outcome set (Wang et al. 2014)

Test: label from the status in PepcDB records

Sequence | protein production
MPRFSTACLDWESRIVNRESLIPFAPLFPTEAEAALDVFKSLQITDLPQVYDRKLGRHRHPTFGESCEQYVFDFVSAIFGAYDEESAKRVIEEFFLLISKKNIKSTLAAGIMLTALIRNWRHNQELLILAPTQEVAGNSFNPAASMVAADPDLTILLHVNKNTKEITHTLTKAVLKIVSADSNTAAGKKAAFVLIEELWLFGKKANAAAMLQEATGGLISRPEGFVIYITTQSDEPPAGVFKEKLDYFRDVRDGKIDDPTSLGVLYEFPDPMIDNEAYLDPANWYVTNPNMGRSVRKDWLERKLLKIQSGEDEEGDTWQSFLAKHLNVEIGMRQRGNRWPGANYWERAADPELAVLDHFAALDRFLERSEVVVVGVDGGGLDDLFGLTLVGREPDEIEIPVMVNGRESLVKMKRWLTWSHAWCHRDVLKRRKKIAPVLTDFDKAGHLTIVDAALEDLASIVDIIGTVKASGLLSSVAVDPAGLGEFVDALASPEIDITQENGLLVGVPQGFALMNAIKTAERRLSNGMLRHAGGPLMPWCVANLKIEPTATAIRATKQTAGDAKIDPAMALFDAVTMMVKNPEAPIASVYAERGIRVV | failed
MPRLARSLPLLLGLGLAAWAGATDGPLPVPADGVKLEAPTTASPSIRLVIPAEEIERRALAEYRQIIDNAAREGALAPDSVPDLARIRAIVQRLVPHAPRWNPDAAHWQWEVNLIGAAQVNAFCMPGGKIAVFSGLLERFRLTDDELAMALGHEIAHALREHARARAGQREITNLGANVISQLFGFGNRGDAGFGEGAKMHLLAFSRAEETEADLIGMDIAARAGFDPRAALTLWQKMGSIGGAEQKQFLSTHPSGRSRMTVLSRHLPETLPLYADALRMPMAKLPEYRSNMQYLGAAPVDNGDEAPMRPMVQQ | failed
MPRRDLLDLLALAAVWGGSFLFMRVAVPEFGPAALMELRVGLAALFLLPLALWRGKPALIARHWKAILVVGTLNSALPFLLYAYAAQSLGAGFLSVANAVTPVWGAVIGWLWLGDRLPRMRALGLLISLSGIIVLVWDKLDFHDGGTGPAVLAAISAPVFYGMAANWTKRYLGHVDALTNATGSMVAASLVLAPLAIIHWPEQAVSFEAWRATVLLAIVCTGAAYIVFFRLIARVGPTAAVSVTFLVPVFGVLWGVWFLDEAVTPRILAGAGVILVGTALALGLVGARRVAAAD | failed
MPRRRVETRRVDHDPGKRTLLLSPVLPLPTMRTCALALLTILLGAPAHGQSTDGPWTIDHVLTQRSLTDVDIGPDGNRVLWVKETPDPEADETTSDVYLTYRDDPHGDSTATLQLTRTGDNRAPRWSPDGEHIAFLSSREQEDAAESSGTQIWRLDPRGGAPEVITSVEHGVQGARWLDDDRLLFTAREQNTRYEQHLEQTEDDADVIEDTTLFRPVRLFTVHVGTGEVTRVTNNDHQIGEFAPSPNGSRVVYSLSDSPITADARNQPHQFLLNLNTGATTEIFDEQYVDPSNFQWTADGAGFYATDSYSSDPEHEGAGITKLYHYDLAARDYQEVPLEWGDKGVGYGGYTVVDGGLHVQLADGPTFEPRFYRKTSDGWAPAEVADERLEHASAFTAGPDGETVVFSHSTADTPPSYRVGTYREGALQRDETLTTLNENLDDLPIPRAEVVRWTGANGETVNGILHYPLDYDPDRAYPMMTVLHGGPSGVDLDAWSLGWTVYAPLLAQRDAFVFRPNYHGSGHHGLDFVESIKGKYYELEVPDIVSGIDSLAAAGVVDKDSLGVMGWSNGAILTTQLTIEHPELFQVAAPGAGDVNWTSDYGNCAFGVRFDRSYFKGAPWTYTEHYIEKSPLFEMPKVQTPTLIHHGTEDRAVPYEQGWEYYRALQQIGNAPVRFLSYPGEPHGLRQLSHQRRKVAEDLKWIDTYLFGETSMQERVSERLLADDAPLSLLETAEAPARTDGHYGVRANGTLVPETVTLGDTLTVGRFEVTRAQFRAYDADFEVPSGTAEYPAHGLAADRAQAYVDWLSEQTGRDYRLPTAAELAALKAARAGPSENTPAYWAGFTPTPDEYRRLRARLAQHPTEALLMPVGSRPAGHGPNGGGPLIYDVDGNVAEWARTADGIEAQNASALTLKDPKAETAPTPPRRVTGLRVVLDR | failed
MPSDGLPKNLEPLAAGDPATIGPYVLVGRLGSGGMGTVYLGRAPEKGTHVAIKVIRPELAFDEATRARFRDEMENARKVASFCTAKVLDHGTFQNRPYMVTEYIAGTALAEHIAEHGPLDSGTLHGFALGVAAALAAIHKAGLVHRDLKPANVLLSLSGPRVIDFGIARALNTSTSHTQTGIVMGSPGWMAPEQLLEEKVTTKADIFAWGCLVAFAGNGRHPFGNGDAMTLGKRMLFAEPDIGNLDPPLDRLVARALAKDPDQRPTAQELLLELAGGTDSNDTNDVVSHALHQSWRPNFPPMPPGYPPPSPQAHSGMPGPQAQAQAPGQTTIAPQPYAHPQQGGPGPMPPQAAGPQGGPQGGPQSPPMPQRPGPQASHHTGQIPVVPPTTGRQPPRSPAAQGSSGGPQARPYVPPNTLPPHRPLRPDSSRSRLLIVFAVLGAVLLAVVLVFGLVFFQDWFSSTSDTNPPGQGQEQQSSAPKEDPDDESDKSDTQAADPQAGESLRFDLLDWYCGNQVLDRPLIVNGGEYCVAEIEAHNSANYPVKFRHDLQILAHASGEQTKADAPLHGEGADPLWAGPIQPGDTVRGYLVFIVHSELTPEVLILRSTVDSPGQQIEIPSGQPA | failed
MPSDNTYIRFRQQQRDPLHVNSPVSAGNISGVQGSGSRHPPSPPTPTTQPSVNHSDAQAERLNNLTLDELLDSPGRAGLTRLDPKRPLATLWFDDDSTVAATVRSIFERDFKEPHANWSQTSKATIDRWYETFAQVYNWDRSINKRVRVEFEAKLNSRMSDQVSRWKGNWKEKGDEAKPKWIDPEGIYKHCSGQTSYKARARKRCEKTGETTPDFLELLDETHRKADGTFIDGKSEEIYKKVTSRIEEEESHMCSGDNPESTGSCGLSVHAKNKIFVEVAPRKKGRIYGVGSLQFEAFSAHSGSTLPSDDPVILSQKLAAAEACIQSQAEKINSFDILFDYLADKDPALAAILRRGSSTQTGPASANEAPVATAPEQQVANEETAAATLANLATGSSPSSIF | failed
MPSFDIVSEITLHEVRNAVENANRVLSTRYDFRGVEAVIELNEKNETIKITTESDFQLEQLIEILIGSCIKRGIEHSSLDIPAESEHHGKLYSKEIKLKQGIETEMAKKITKLVKDSKIKVQTQIQGEQVRVTGKSRDDLQAVIQLVKSAELGQPFQFNNFRD | not failed
MPSGQALRISRTCRLNAHPRFDRLWRSPTPIQVSAMIVAFRLFLACLGLFLCLSSPLAAQVSLYSGIAGTSDESAGGDLAEAIRAASEAGASVIVIDSAGRVAAAGTEAGAVETARVDPMGEASQLMKAQEKVSDFIGALRSRLEALPYSIFEVQYILRQTSPDGRIATYAEVLAINLVLLLIGRWMSIEIYGKRIARKHVVSRIREAPRGYREKMPFLVFRFVMGVGATLFAMVFAFIIGFLIFGPMQDLSIQFTVTAIFTAYFLARTASDLWRMVLSPYLSQYRLPPFSDRDAKRLYLWASLLATYDISSELFSTWVADFGLNYNVYAMVYGVLTGVGALGNVLMVLFNGRAISNAIRGGRTKDEVSWILRLVSVAWAPVVLFYMVFGWLQLAFDLVLERPVHIPLMAGTYGIFMSVVVAYGAMNYLLERYFDRTRQVKELNAALAEAEAAEDLSMTGVSAQRHHIATFEDLARRVAGILAFVVGTYALVLIWNPEMDWTGDLPIDRALDVMVIIFLGYIVFHFFRIWIDSKIAEETVDVPEGELGDEGGGTSASRLATLLPLFRGAILAVVVVSIVLIALMEVGINVSPLFAGAGVVGLAVGFGSQTLVRDIFSGAFFLVDDAFRKGEYIDIGDVKGTVEKISVRSFQLRHHLGALHTIPFGEIKVLTNFSRDWVIMKLPLRVTYDTDVEKVRKLIKNLGQELLSDPVIGDNFIQPLKSQGVIEMQDSAMIIRVKFMTKPGDQWLVRKRVYQDIRELFAREGIKFAHREVTVRLADGQEAAKMTPQQREAVTGAVQAAIDEDVLDDMMDDDR | failed
